Experimental data taken from the nanobody polyreactivity screen of Harvey et al. (2022).

Assay: yeast display, Sf9 membrane polyspecificity reagent, FACS + sequencing; frameworks hold sequencing errors
Summary of the method: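 Nanobodies came from a synthetic yeast display library in Saccharomyces cerevisiae BJ5465, induced with galactose for 36–48 hours and stained for 1 hour at 4 °C with 10% biotinylated, detergent-solubilized Sf9 membrane reagent. Cells were enriched on streptavidin microbeads and then FACS-sorted, with low and high (top ~1%) gates set on anti-HA fluorescence for expression and streptavidin fluorescence for reagent binding. Each polyreactivity label reflects the gate a clone came from. Genes were amplified by colony PCR, sequenced by MiSeq 2 × 250 and filtered by CDR length.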

Sequence	polyreactivity (PSR sort gate)
QVQLVESGGGLVQAGGSLRLSCAASGITFSYYTLGWYRQAPGKERELFARINSGGTTNYADSVKGRFTISRDNAKNTVYLQMNSLKPEDTAVYYCAAEWVSWRWAHKFDYWGQGTQVTVSS	high polyreactivity
QVQLVESWGVLVQAGGSLRLSCAAYGSIFRLYAMGSYRTAPGTARELVAAITSGDSTNYADSVKGRFTISRDNAKNTVYLQMNSLKPEDTAVYYCNSGRISVRVTSEQYAYHEYYYWGQGTQVTVSS	high polyreactivity
QVQLVESGGGLVQAGGSLRLSCAASGRILLTYAMGWYRQAPGKERELVAAISSDSRTYYADSVKGLFTISRDNAKNTVYLQMNSLKPEDTAVYYCVRRRYKYDYWGQGTQVTVSS	low polyreactivity
QVHLVESGGGLVQAGGSLRLSCAASGFTFPLYARGLYRQAPGKERELVAVINSDGGRTYYADSVKGRFTISRDNAKYTVYLQMNSLKPEDTAVYYCATRATWYYWGQGTQVTVSS	high polyreactivity
QVQLVESGGALVQAGGSLRLSCAASGITFARNAMGWYRQAPGKERELVAVISTRGGRTYYADSVKGRFTISRDNAKNTVYLQMNSLKPEDTAVYYCAASPDPYWRRMDYWGQGTQVTVSS	high polyreactivity
QVQVVESGGGLVQAGGSLRLSCAASGRIFANNAMGWYRQAPGKERELVAAITASSGSTYYADSVKGRFTISRDNAKNTVYFQMNSLKPEDTAFYYCAATLRWGFRWYFGFDYWGQGTQVTVSS	high polyreactivity
QVQLVESGGGLVQAGGSLRLSCAASGSTFTSYAMGWYRQAPGKERELVASISRSGGSTYYADSVKGRFTISRDNAKNTVYLQMNSLKPEDTAVYYCAVRSVTWHGYWGQGTQVTVSS	high polyreactivity
QVQLVESGGGLVQAGGSLRLSCAASGRIFTTYAMGWYRQAPGKERELVAAISRSGGSTYYADSVKGRFTISRDNAKNTVYLQMNSLKPEDTAVYYCAAVPTSNSFRSSFYYWGQGTEVTVSS	high polyreactivity
QVQLEESGGGLVQAGGSLRLTCAASGRIFTPYAMGWYRQAPGKQTELVADIRDGSTYYADSVKGRFTISRDNAKNTVYLQMNSLKPEDTAVYYSRYYIWVWWSGAYDYWGQGTQVTVSS	low polyreactivity
QVQLVESGGGLVQAGGSLRLSCAASGSTFVTYAMGWYRQAPGKERELVAAISRSGGSTYYADSVKGRFTISRDNAKNTVYLQMNSLKPEDTAVYYCAAVIYPYYSYAHRYDYWGQGTQVTVSS	low polyreactivity
QVQLVESGGGLVQAGGSLRLSCAASGRTFYQYYMGWYRQSPGKEREVVAAIDWSGGSTYYADSVKGRFTISRDNAKNTVYLQMNSLKPEDTAVYYCNADAYPHPVVGYDYWGQGTQVTVSS	low polyreactivity
QVQLVESGRGIVQAGGSLRLSCAASGLTFSSNAMVWYRQAPGKEREMVAVITNGGSTNYADSVKGRFTISRDNAKNTVYLQMNSLKPEDTAVYYCAKDGGPAQDIGMDYWGQGTQVTVSS	low polyreactivity
QYQLVESGGGLVQAGGRLRLSCAASGSIFSNYAMGWYRQAPGKERQFVAAISGGGGSTYYADSVKGRFTISRDNANNTVYLQMNSLKPEDTAVYYCARVRYYGALKLYAYDHWGQGTQVTVSS	high polyreactivity
QVQLVESGGGLVQAGGSLRLSCAASGIIFYGYAMGWYRQAPGKERDLVAAISSGGGTNYADSVKGRFTISRDNAKNTVYLQMNSLIPEDTAVYYCASRQYRRVKQGNYWGQGTQVTVSS	high polyreactivity
QVQLVESGGGLVQAGGSLRLSCAASGFTFWAYAMGWYRQAPGKERELVAAISGSGGNTYYADSVKGRFTISRDNAKNTVYLQMNSLKPEDTAVYYCAVEDAGQGGDYWGQGTQVTVSS	low polyreactivity
QVQLVESGGGLVQAGGSLRLSCSASGYIFSSNTMGWYRQAPGTERELVAGISGRTGRTYYADSVKGRFTISRDNAKNTVYLQMNSLKPEDTAVYYCARVPYQGYPRRRLSGYYYWGQGTQVTVSS	high polyreactivity

Sequence	polyreactivity (PSR sort gate)
QVQLVESGGGLVQAGGSLRLSCAASGRNFGVYTMGWYRQAPGKERELVAAITSGGNTNYADSVKGRFTISRDNAKNNVYLQMNCLKPEDTAVYYCAARYVGNFYYPGHNYWGQVTQVTVSS	low polyreactivity
QVQLVESGGGLVQAGGSLRLSCAASGFIFYYYAMGWYRQAPGKERELVAAISSGGSTYYADSVKGRFTISRDNAKNTVYLQMNSLKPEDTAVYYCNARGFYRGYTYYYWGQGTQVTVSS	high polyreactivity
QVQLVESGGGLVQAGGSLRLSCAASGNTFSGNAMGWYRQAPGKERELVAAISGSGASTYYADSVKGRFTISRDNAKNTVYLQMNSLKPEDTAVYYCAADKPGIFSRFDYWGQGTQVTVSS	low polyreactivity
QVQLVESGGGLVQAGGSLRLSCAASGSTFSLYVMGWYRQAPGKEREFVATINWRTVSTYYADSVKGRFTISRDNAKKTVYLQMNSLIPEDTAVYYCNAVSYPPDGTYDYWGQGTQVTVSS	low polyreactivity
QVQLVESGGGLVQAGGSLRLSCAASGRIFHGNAMGWYRPAPGKERELVAAITSGGRTFYADSVKGRFTISRDNAKNTVYLQMNRLKPEDTAVYYCNAPSIAGYAEYNSHDYWGQGTQVTVSS	high polyreactivity
QVQLVESGGGLVQAGGSLRLSCAASGSTSWSNARGWYRQAPGKERELLAAITTGASTYYADSVKGRFTMSRDNAKNTVYYQMNSLKPEDTAVYYCAADPWVLWSYYYWGQGTQVTVSS	low polyreactivity
QVQLVESGGGLVQAGGSLRLSCAASGRTFTVYPMGWYRQAPVKEREFVAAITERGGSTYYADSVKGRFTISRDNAKNTVYLQMNSLKPEDTAVYYCAAVYYWRPGWYVRFDYWGQGTQVTVSS	low polyreactivity
QVQLVDSVGGLVKAGCSLRLSCAASGSTLPVNAKGCYRQAPGKERELVAAINRDGSTIYADSVKRPFTISRDIAKNTVYLKMNRLKPEDTAVYYCAADGFGYPGKRYDFWGQGTQVTVSS	low polyreactivity
QVQLVESGGGLVQAGGSLRLSCAASGSIFTYTMGWYRQAPGKERELVAVISRSGGRTYYADSVKGRFTISRDNAKNTVYLQMNSLKPEDTAVYYCATDGHNGYYGRYDYWGQGTQVTVSS	high polyreactivity
QVQLVESGGGLVQAGGSLRLSCAASGSIFNYYAMGWYRPAPGKERELVAGITTSGGSTYYADSVKGRFTISRDNAKNTVYLQMNSLKPEDTAVYYCAAYDYISSTYFLDDYWGQGTQVTVSS	low polyreactivity
QVQLVESGGGIVQAGGSLRLICAASGLILYGYTMGWYRQAPGKDRQLVAAISRGGGGTYYADSVKGRFTISRDNVKNTVYLQINSLKPEDTAVYYCAAYVYSLGGEYFYWGQGTLVTVSS	high polyreactivity
QFQLVESVGGLVQAGGSLRLSCAASGNIFPAYAMGWYRQAPGKERELVAAISKSGGRTYYADSVKGRFTISRDNAKNTVYLQMNSQKPEDTAVYYALLTVLRAVPYSVRYDYCGQGTQVTVSS	high polyreactivity
QVQLVESGGCLVQAGGSLRLSCAASGIIFDDYAMGWYRQAPGKERELVAAISVSGGSTYYADSVKGRFTISRDNAKNTVYLQMKSLKPEDTAVYYCAARLRQPYSRGNYWGQGTQVTVSS	high polyreactivity
QVQLVESGGGLVQAGGSLRLSCAASGSTFWIYAMGWYRPAPGKERELVAAITLRSGSTYYADSVKGRFTISRDNAKNTVYLQMNSLKPEDTAVYYCAKDYYGTYYAQYNYWGQGTQVTVSS	low polyreactivity
QVQLVESGGGLVQAGGSLRLSCAASGSTFYSYAMGWYRQAPGKERELVADIDWSGGSTYYADSVKGRFTISRDNAKNTVYLQMNSLKPEDTAVYYCNAERGATGYYVTGDDYWGQGTQVTVSS	low polyreactivity
QVQLVESGGGLVQAGGSLRLSCAASGFTFGWYAMGWYRPAPGKERELVAAISRSGGSTYYADSVKGRFTISRDTAKNTVYLQMNSLKPEDTAVYYCAATYPQGKYTYGRSYDYWGQGTQVTVSS	high polyreactivity
